Source: patent US20190092871A1 (VIB VZW, published 2019)

molecular target: T1, human CD20 (human, UniProt P11836 1-297); assay: FACS, 5 ug/ml VHH on CHO-K1 cells stably expressing human CD20, FITC anti-his detection
T1 construct: The forward primer starts at codon 2; also called hCD20; CHO-K1-hCD20
T1 sequence: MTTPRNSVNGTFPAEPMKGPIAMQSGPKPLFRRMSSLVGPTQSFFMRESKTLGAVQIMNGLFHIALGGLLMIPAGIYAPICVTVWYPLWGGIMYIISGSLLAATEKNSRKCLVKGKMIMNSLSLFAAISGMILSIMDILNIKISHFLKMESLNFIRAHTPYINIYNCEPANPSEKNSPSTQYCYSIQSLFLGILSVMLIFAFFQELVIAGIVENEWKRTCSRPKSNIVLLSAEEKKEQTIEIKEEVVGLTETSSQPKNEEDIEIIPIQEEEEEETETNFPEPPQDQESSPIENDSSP
Method: (§1) To determine the binding activities of the VHHs specific for human or mouse CD20, FACS analysis was carried out. Specifically, CHO-K1 cells and CHO-K1 cells stably expressing human or mouse CD20 were incubated with 5 μg/ml of the VHHs produced in accordance with the application. A monoclonal FITC labelled anti-his antibody (Genscript #A01620) was applied as secondary stain. FACS analysis was done on a FacsCalibur flow cytometer (Becton Dickinson).

Row | Binder | binding result
1 | 2HCD25 (VHH, Whole entry = VHH-AAA-HA-His6 (pMECS construct); also called hCD20Nb) VHH: QVQLQESGGGLAQAGGSLRLSCAASGRTFSMGWFRQAPGKEREFVAAITYSGGSPYYASSVRGRFTISRDNAKNTVYLQMNSLKPEDTAVYYCAANPTYGSDWNAENWGQGTQVTVSS | binds
2 | 2HCD78 (VHH, Whole entry = VHH-AAA-HA-His6 (pMECS construct)) VHH: QVQLQESGGGLVQPGGSLRLSCAASGRTFSMGWFRQAPGKEREFVAAITYSGGSPYYASSVRGRFTISRDNAKNTVYLQMNSLKPEDTAVYYCAANPTYGSDWNAENWGQGTQVTVSS | binds
3 | 2HCD73 (VHH, Whole entry = VHH-AAA-HA-His6 (pMECS construct)) VHH: QVQLQESGGGLVQAGGSLRLSCAASGRTFSRQSMGWFRQAPGEEREFVAVITWSGGSPYYADSVRGRFTISRDNAKNTVYLQMNSLKPEDTAVYYCAAPVSYGSQWLADYWGQGTQVTVSS | binds
4 | 2HCD81 (VHH, Whole entry = VHH-AAA-HA-His6 (pMECS construct)) VHH: QVQLQESGGGLVQAGGSLRLSCAASGRTFSSYNMGWFRQAPGKEREFVAVISWSGGSPYYADSVKGRFTISRDNAKNTVYLQMNSLKPEDTAVYYCAAPVSYGSSWLADYWGQGTQVTVSS | binds
5 | 2HCD17 (VHH, Whole entry = VHH-AAA-HA-His6 (pMECS construct)) VHH: QVQLQESGGGLVQAGGSLRLSCAASGRTVGSYSMGWFRQAPGKEREFVAAVIWSGASPYYADSVKGRFTISRDNAKNTVYLQMNSLKPEDTAVYYCAANPTYSGGWHAEYWGQGTQVTVSS | binds

molecular target: T2, mouse CD20 (mouse, UniProt P19437 1-291); assay: FACS, 5 ug/ml VHH on CHO-K1 cells stably expressing mouse CD20, FITC anti-his detection
T2 construct: whole, on cells; also called mCD20; CHO-K1-mCD20
T2 sequence (looked up): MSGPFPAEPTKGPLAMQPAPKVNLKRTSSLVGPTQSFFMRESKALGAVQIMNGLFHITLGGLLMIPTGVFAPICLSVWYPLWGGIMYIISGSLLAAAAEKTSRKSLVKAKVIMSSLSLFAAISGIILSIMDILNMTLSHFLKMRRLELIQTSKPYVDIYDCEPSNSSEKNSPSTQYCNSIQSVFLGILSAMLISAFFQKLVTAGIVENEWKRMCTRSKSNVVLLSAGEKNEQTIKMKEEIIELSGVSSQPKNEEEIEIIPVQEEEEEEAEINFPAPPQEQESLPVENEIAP
Method: as §1

Row | Binder | binding result
6 | R3MCD137 (VHH, Whole entry = VHH-AAA-HA-His6 (pMECS construct)) VHH: QVQLQESGGGSVQAGGSLRLSCAASGSTFSIKAMGWYRQAPGKQRELVAAFISGRGSTKYADSVKGRFAISRDNAKNTMYLQMDSLEPEDTAVYYCYIVLPTGGGSAMDYWGEGTQVTVSS | binds
7 | R3MCD22 (VHH, Whole entry = VHH-AAA-HA-His6 (pMECS construct)) VHH: QVQLQESGGGVVQAGGSLRLSCAASGSTFSIKAMGWYRQAPGKQRDLVAGFISGRGSAKYADSVKGRFAISRDNAKNTMYLQMDSLKPEDTAVYYCYIVLTTGGGSAMDYWGQGTQVTVSS | binds

molecular target: T1, human CD20; assay: cell ELISA, crude periplasmic extract, CHO-K1 expressing human CD20 against parental CHO-K1

Row | Binder | binding result
8 | 2HCD43 (VHH, Whole entry = VHH-AAA-HA-His6 (pMECS construct)) VHH: QVQLQESGGGLVQPGGSLRLSCTASGFTLDYYAIGWLRQAPGKEREGVSCISSSGGSTNYADSVKGRFTISRDNAKNTVYLLMNSLKPEDTAVYYCAAERTWVSNYYCSGDGDGYDYDYWGQGTQVTVSS | binds
9 | R3CD105 (VHH, Whole entry = VHH-AAA-HA-His6 (pMECS construct)) VHH: QVQLQESGGGLVQAGGSLRLSCAASGRTFSNYNMGWFRQAPGKEREFVAAIDWSGGSPYYAASVRGRFTISRDNAENTVYLQMNSLKPEDTAVYYCAAPLSYGSTWLADYWGQGTQVTVSS | binds
10 | R3CD18 (VHH, Whole entry = VHH-AAA-HA-His6 (pMECS construct)) VHH: QVQLQESGGGLVQAGGSLRLSCAASGRTFSNSNMGWFRQAPGKEREFVAVIDWSGGSPYYTDSVRGRFTISRDNAKNTVYLQMNRLKPEDTAVYYCAGGVSFGSRWLSDYWGQGTQVTVSS | binds
11 | 2HCD40 (VHH, Whole entry = VHH-AAA-HA-His6 (pMECS construct)) VHH: QVQLQESGGGLVQAGGSLRLSCAASGRTVGSYSMGWFRQAPGKEREFVAAVTWSGASPYYADSVKGRFTISRDNAKNTVYLQMNSLKPEDTAVYYCAANPTYSGGWHAEYWGQGTQVTVSS | binds
12 | 2HCD88 (VHH, Whole entry = VHH-AAA-HA-His6 (pMECS construct)) VHH: QVQLQESGGGLVQAGDSLRLSCAASGRTVGSYSMGWFRQAPGKEREFVAAVTWSGASPYYADSVKGRFTISRDNAKNTVYLQMNSLKPEDTAVYYCAANPTYSGGWHAEYWGQGTQVTVSS | binds
13 | 2HCD68 (VHH, Whole entry = VHH-AAA-HA-His6 (pMECS construct)) VHH: QVQLQESGGGLVQPGGSLRLSCAASRFTLDYYAIGWFRQAPGKEREFVAAVTWSGASPYYADSVKGRFTISRDNAKNTVYLQMNSLKPEDTAVYYCAANPTYSGGWHAEYWGQGTQVTVSS | binds
14 | 2HCD59 (VHH, Whole entry = VHH-AAA-HA-His6 (pMECS construct)) VHH: QVQLQESGGGSEQPGGSLRLSCAASGRTVGSYSMGWFRQAPGKEREFVAAVTRSGASPYYADSVKGRFTISRDNAKNTVYLQMNSLKPEDTAVYYCAANPTYSGGWHAEYWGQGTQVTVSS | binds
